Publication PMC12609908

Columns and labels:
[1] = target: T1, CutR (Mycobacterium sp. strain JC1) (UniProt D5G1X9); experiment: EMSA; conditions: 50 mM Tris-HCl pH 8.0, 100 mM NaCl, 40% glycerol, 5 mM DTT, 2 mM EDTA, 4 °C 1 h; 10% native PAGE in 0.5x TBE at 4 °C
T1 sequence: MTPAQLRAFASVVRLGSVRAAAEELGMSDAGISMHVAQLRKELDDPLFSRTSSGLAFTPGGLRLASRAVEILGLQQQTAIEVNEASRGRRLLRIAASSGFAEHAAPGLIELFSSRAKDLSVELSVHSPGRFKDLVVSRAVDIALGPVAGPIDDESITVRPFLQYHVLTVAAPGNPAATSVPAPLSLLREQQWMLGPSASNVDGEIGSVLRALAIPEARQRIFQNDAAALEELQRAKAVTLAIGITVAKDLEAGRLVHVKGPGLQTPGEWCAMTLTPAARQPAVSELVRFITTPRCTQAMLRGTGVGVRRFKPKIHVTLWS

[2] = target: CutR, LysR-type transcriptional regulator from Mycobacterium sp. strain JC1 (native protein) (Mycobacterium sp. strain JC1); experiment: SEC; Superdex G-75 column, 20 mM Tris-HCl pH 7.5, 500 mM NaCl, 5 mM beta-mercaptoethanol; size standards conalbumin, ovalbumin, carbonic anhydrase, ribonuclease A, aprotinin

Substance	binding [1]	stoichiometry N [2]
ACCCCGAGTTAAGTGATTCCTTAACTCGCTATTGACGCCATCGCGGCGGCAACGGAAACTAGCCACTTCAGCCACGACGTTGTGAGGATGATCACATGCAA (double strand) [IR1 to CRP motif fragment (101 bp)]	binds	–
CutR, LysR-type transcriptional regulator from Mycobacterium sp. strain JC1 (native protein) (natural protein)	–	2
